Experimental data: patent publication US20120165267A1

What was measured:
[1] = biological target: DR4-selective phage clone 13 (human) (UniProt P50591); experiment: competition phage ELISA: phage clone Apo.DR4-13 at a fixed concentration on wells coated with DR4-IgG, competed by rising soluble DR4-IgG (axis in nM), bound phage detected with anti-M13 antibody-HRP, A450; IC50 from a 4-parameter fit, fourth value in the IC50 box beside the legend
[2] = biological target: wild-type (native sequence) Apo2L/TRAIL(96-281) displayed on phage (human) (UniProt P50591); experiment: competition phage ELISA: wild-type Apo2L/TRAIL phage (ApoWT) at a fixed concentration on wells coated with DR4-IgG, competed by rising soluble DR4-IgG (axis in nM), bound phage detected with anti-M13 antibody-HRP, A450; IC50 from a 4-parameter fit, fifth value in the IC50 box beside the legend
[3] = biological target: DR4-selective phage clone 8 (human) (UniProt P50591); experiment: competition phage ELISA: phage clone Apo.DR4-8 at a fixed concentration on wells coated with DR4-IgG, competed by rising soluble DR4-IgG (axis in nM), bound phage detected with anti-M13 antibody-HRP, A450; IC50 from a 4-parameter fit, first value in the IC50 box beside the legend
[4] = biological target: DR4-selective phage clone 9 (human) (UniProt P50591); experiment: competition phage ELISA: phage clone Apo.DR4-9 at a fixed concentration on wells coated with DR4-IgG, competed by rising soluble DR4-IgG (axis in nM), bound phage detected with anti-M13 antibody-HRP, A450; IC50 from a 4-parameter fit, second value in the IC50 box beside the legend
[5] = biological target: DR4-selective phage clone 11 (human) (UniProt P50591); experiment: competition phage ELISA: phage clone Apo.DR4-11 at a fixed concentration on wells coated with DR4-IgG, competed by rising soluble DR4-IgG (axis in nM), bound phage detected with anti-M13 antibody-HRP, A450; IC50 from a 4-parameter fit, third value in the IC50 box beside the legend

DR4-IgG, sequence (O00220 24-241 H141R/R209T limits assumed): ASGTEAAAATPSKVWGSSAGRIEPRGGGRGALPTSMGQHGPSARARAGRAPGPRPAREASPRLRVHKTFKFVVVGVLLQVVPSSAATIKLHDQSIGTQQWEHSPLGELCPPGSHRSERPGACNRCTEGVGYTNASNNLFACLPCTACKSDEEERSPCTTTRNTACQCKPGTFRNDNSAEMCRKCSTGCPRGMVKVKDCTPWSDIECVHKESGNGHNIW

- IC50 [1]: 6.7 nM
- IC50 [2]: 2.8 nM
- IC50 [3]: 1.3 nM
- IC50 [4]: 1.1 nM
- IC50 [5]: 4.2 nM
Substance: DR4-IgG (from UniProt O00220 24-241) (Fc fusion)
